Measurements from US20180371492A1 (WAYNE STATE UNIVERSITY, published 2018).

Target: T1, purified androgen receptor (AR) (human, UniProt P10275 1-920, limits assumed)
T1 construct: also called purified AR
T1 sequence: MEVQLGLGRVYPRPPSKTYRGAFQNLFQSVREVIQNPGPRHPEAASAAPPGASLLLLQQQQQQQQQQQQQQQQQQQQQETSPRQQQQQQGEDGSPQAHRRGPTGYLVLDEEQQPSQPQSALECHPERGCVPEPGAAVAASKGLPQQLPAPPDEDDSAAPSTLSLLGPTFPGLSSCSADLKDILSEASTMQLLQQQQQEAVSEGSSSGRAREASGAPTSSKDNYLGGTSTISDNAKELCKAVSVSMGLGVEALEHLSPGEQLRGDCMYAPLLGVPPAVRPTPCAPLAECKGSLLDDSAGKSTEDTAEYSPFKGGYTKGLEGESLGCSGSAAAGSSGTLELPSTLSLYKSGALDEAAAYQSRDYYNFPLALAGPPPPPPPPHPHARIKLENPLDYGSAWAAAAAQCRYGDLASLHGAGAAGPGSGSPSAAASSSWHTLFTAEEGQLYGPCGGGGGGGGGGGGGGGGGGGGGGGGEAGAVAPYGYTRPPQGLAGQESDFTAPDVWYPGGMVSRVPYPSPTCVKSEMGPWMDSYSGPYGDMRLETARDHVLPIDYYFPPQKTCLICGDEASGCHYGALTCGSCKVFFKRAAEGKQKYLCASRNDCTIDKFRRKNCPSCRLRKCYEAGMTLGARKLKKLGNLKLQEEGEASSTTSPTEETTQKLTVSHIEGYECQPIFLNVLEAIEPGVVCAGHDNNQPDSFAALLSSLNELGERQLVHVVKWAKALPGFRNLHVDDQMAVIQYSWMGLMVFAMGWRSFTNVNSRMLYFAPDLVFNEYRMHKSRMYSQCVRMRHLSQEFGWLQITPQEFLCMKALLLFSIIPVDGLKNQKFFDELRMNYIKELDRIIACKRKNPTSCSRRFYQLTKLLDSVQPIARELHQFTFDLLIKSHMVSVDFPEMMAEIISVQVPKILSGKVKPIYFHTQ
Test: SPR, purified proteins

Kd: 19 nM
B1: ELK1 (ETS transcription factor (ELK1), transcript variant 1) (other)
chain: MDPSVTLWQFLLQLLREQGNGHIISWTSRDGGEFKLVDAEEVARLWGLRKNKTNMNYDKLSRALRYYYDKNIIRKVSGQKFVYKFVSYPEVAGCSTEDCPPQPEVSVTSTMPNVAPAAIHAAPGDTVSGKPGTPKGAGMAGPGGLARSSRNEYMRSGLYSTFTIQSLQPQPPPHPRPAVVLPNAAPAGAAAPPSGSRSTSPSPLEACLEAEEAGLPLQVILTPPEAPNLKSEELNVEPGLGRALPPEVKVEGPKEELEVAGERGFVPETTKAEPEVPPQEGVPARLPAVVMDTAGQAGGHAASSPEISQPQKGRKPRDLELPLSPSLLGGPGPERTPGSGSGSGLQAPGPALTPSLLPTHTLTPVLLTPSSLPPSIHFWSTLSPIAPRSPAKLSFQFPSSGSAQVHIPSISVDGLSTPVVLSPGPQKP
notes: also called purified ELK1; ELK1 polypeptide
